In US11155586B2, “Cystine knot scaffold platform” (Genentech, Inc., priority 2015, dated 2021):
Converted amounts (≈) assume the structure as drawn. No end group written: not given here.

Experiments:
Solubility = assay type: physicochemical; conditions: vs variant without F8Y; read-out: improvement of solubility by F8Y substitution
Text: In variants derived from VEGF_CKP9.54 (such as the variants in Table 35) the amino acid at position 8 is Phe. Therefore, we sought to mutate Phe8 to Tyr I in some of the variants in Table 35, with the goal of improving affinity and/or solubility of the resulting F8Y variant. […] See Table 37, in which the binding affinities of certain variants (as determined by surface plasmon resonance) are compared, and Table 38 in which the potencies of certain variants (as determined by cellular IC50) are compared. […] VEGF_CKP9.54.90.67.F8Y was selected for further follow-up studies.

hVEGF-A (8-109) [1] = target: T1, hVEGF-A (8-109) (Homo sapiens, UniProt P15692); assay: SPR binding assay (BIACORE 3000, 37° C.); conditions: SPR affinity (Table 37) and cellular IC50 (Table 38), vs variant without F8Y
T1 sequence (P15692 34-135 isoform P15692-4): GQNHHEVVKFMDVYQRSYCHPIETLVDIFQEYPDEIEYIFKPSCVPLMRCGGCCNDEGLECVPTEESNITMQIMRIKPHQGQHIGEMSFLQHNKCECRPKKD
Protocol: Depending on the format of the assay either a streptavidin sensor (SA) or a dextran-coated (CM5) sensor was utilized as described below.
For use with the SA sensor, VEGF-A was first biotinylated (no more than 2 biotin/VEGF-A) by incubating the protein with EZ-link NHS-PEG4-Biotin (Pierce) in a 1:1.5 molar ratio respectively, in PBS for 2 hours on ice. Reaction was then quenched by addition of 10 molar excess of Glycine pH 8.0 and the sample was buffer exchanged into PBS using an Amicon 0.5 mL 3000 MWCO ultra-centrifugal filters (EMD Millipore). The biotinylation state of the protein was verified by LC-MS analysis. Biotinylated VEGF-A was then captured on the surface until a resonance unit (RU) signal of about ˜400. For immobilization of VEGF-A on CM5 sensor, the surface was first activated with a mixture of N-ethyl-N′-(3-dimethylaminopropyl)carbodiimide hydrochloride and N-hydroxysuccinimide (EDC/NHS) according to the supplier instructions. VEGF-A was then diluted into coupling buffer (0.1 M Acetate Buffer, pH 5.0) and injected until the signal reached about ˜400 RU followed by a wash with 1 M ethanolamine pH 8.0 to quench remaining activated sites.
Following the capture step, a series of the peptide concentrations were prepared in HBS-EP buffer with matching DMSO concentrations to 0.1% and injected at a flow rate of […]. The resulting sensorgrams were then analyzed using a 1:1 binding model to obtain kinetic data and affinities using Scrubber 2.0 (BioLogic Software).

hVEGF-A (8-109) [2] = target: T1, hVEGF-A (8-109); assay: Phage competition ELISA; assay type: binding; conditions: phage competition ELISA, FIG. 15
LRP6 E1E2 = target: T2, LRP6 E1E2 (Homo sapiens, UniProt O75581); assay: Phage selection / spot phage ELISA against LRP6 E1E2; assay type: binding
T2 sequence (O75581 20-630 limits assumed): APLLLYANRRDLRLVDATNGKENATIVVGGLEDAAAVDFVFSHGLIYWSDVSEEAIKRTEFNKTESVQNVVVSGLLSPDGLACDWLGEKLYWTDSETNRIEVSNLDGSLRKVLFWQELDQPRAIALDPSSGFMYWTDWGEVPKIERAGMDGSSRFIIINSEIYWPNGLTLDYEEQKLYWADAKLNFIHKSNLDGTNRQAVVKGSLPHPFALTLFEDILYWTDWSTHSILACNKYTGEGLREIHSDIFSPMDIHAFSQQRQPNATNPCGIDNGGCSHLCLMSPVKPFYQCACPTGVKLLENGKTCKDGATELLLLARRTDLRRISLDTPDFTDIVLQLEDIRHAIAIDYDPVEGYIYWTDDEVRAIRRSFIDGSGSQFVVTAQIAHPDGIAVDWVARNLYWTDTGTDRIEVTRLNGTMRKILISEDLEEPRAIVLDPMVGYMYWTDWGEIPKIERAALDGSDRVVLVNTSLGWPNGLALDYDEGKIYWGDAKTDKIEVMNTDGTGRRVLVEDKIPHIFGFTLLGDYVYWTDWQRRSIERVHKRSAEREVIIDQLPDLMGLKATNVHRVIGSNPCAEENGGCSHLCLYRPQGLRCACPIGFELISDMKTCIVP
Protocol: After four rounds of binding selection, individual phage clones were picked and inoculated into 450 μl 2YT media containing 50 µg/ml Carbenecillin and M13-KO7 helper phage in 96-well blocks, which were grown at 37° C. overnight. The supernatant was analyzed with spot phage ELISA as follows: hVEGF(8-109) or BSA were coated on 384-well MAXISORP™ immunoplates and phage supernatant diluted (1:3) with PBT buffer was added to the wells. The plates were washed and bound phage was detected with anti-M13-HRP followed by TMB substrate. In these assays, phage binding to BSA alone was tested in parallel to assess background binding. Clones whose binding signals for hVEGF-A (8-109) were more than 3 times higher than to BSA (background) were considered positive. Positive clones were subjected to DNA sequence analysis.
The naïve EETI-II libraries described in Example 2A were cycled through rounds of selection against LRP6 E1E2 protein. Twenty-two unique clones were identified which bound LRP6 E1E2 (Table 46). These initial hits contained variations in amino acid content within loops 1 and 5. […] The newly evolved variants recapitulated a motif which occurs in natural ligands.

[3] = target: Wnt1 signaling (Homo sapiens); assay: Wnt luciferase reporter assay in HEK293 cells, Wnt1; assay type: cell-based
Protocol: HEK293 cells stably transfected with a firefly luciferase Wnt reporter (Gong et al. (2010) PLoS ONE 59: e12682). and pRL-SV40 Renilla luciferase (Promega) were grown to 90% confluence in DMEM:F12 (50:50) supplemented with 10% FBS, 2 mM GLUTAMAX™ and 40 μg/ml hygromycin. Cells were incubated in a 5% CO2 humidified incubator at 37° C. for 24 h. Following the incubation, the cells were trypsinized (0.05% Gibco 15400-54 in PBS) then diluted to 4×10^5 cells/ml in DMEM:F12 (50:50) supplemented with 10% FBS, 2 mM GLUTAMAX™. 20,000 cells were loaded into individual wells of white microtest 96-well optilux plates (catalog no. 353947) and incubated for ˜24 h. Each well was transfected using FUGENE® HD with Wnt1-pCDNA3.2 (5 ng/well) or Wnt3a-pCDNA3.2 (25 ng/well) then grown for 24 h. […]
Luciferase response in all assays was then measured with Promega's DUAL-GLO® kit according to the manufacturer's instructions, except using half the volume of each reagent. Firefly luminescence and Renilla luminescence were measured on a Perkin Elmer ENVISION™ Multilabel Reader. The ratios of firefly luminescence: Renilla luminescence were calculated and normalized to the ratio in control cells expressing or treated with the indicated Wnt protein. […] Statistical significance was determined using the Holm-Sidak method, with alpha=5.000%.

mouse or rat VEGF-A = conditions: cited from earlier work

Wnt1 signaling (Homo sapiens), sequence (O75581 20-1613): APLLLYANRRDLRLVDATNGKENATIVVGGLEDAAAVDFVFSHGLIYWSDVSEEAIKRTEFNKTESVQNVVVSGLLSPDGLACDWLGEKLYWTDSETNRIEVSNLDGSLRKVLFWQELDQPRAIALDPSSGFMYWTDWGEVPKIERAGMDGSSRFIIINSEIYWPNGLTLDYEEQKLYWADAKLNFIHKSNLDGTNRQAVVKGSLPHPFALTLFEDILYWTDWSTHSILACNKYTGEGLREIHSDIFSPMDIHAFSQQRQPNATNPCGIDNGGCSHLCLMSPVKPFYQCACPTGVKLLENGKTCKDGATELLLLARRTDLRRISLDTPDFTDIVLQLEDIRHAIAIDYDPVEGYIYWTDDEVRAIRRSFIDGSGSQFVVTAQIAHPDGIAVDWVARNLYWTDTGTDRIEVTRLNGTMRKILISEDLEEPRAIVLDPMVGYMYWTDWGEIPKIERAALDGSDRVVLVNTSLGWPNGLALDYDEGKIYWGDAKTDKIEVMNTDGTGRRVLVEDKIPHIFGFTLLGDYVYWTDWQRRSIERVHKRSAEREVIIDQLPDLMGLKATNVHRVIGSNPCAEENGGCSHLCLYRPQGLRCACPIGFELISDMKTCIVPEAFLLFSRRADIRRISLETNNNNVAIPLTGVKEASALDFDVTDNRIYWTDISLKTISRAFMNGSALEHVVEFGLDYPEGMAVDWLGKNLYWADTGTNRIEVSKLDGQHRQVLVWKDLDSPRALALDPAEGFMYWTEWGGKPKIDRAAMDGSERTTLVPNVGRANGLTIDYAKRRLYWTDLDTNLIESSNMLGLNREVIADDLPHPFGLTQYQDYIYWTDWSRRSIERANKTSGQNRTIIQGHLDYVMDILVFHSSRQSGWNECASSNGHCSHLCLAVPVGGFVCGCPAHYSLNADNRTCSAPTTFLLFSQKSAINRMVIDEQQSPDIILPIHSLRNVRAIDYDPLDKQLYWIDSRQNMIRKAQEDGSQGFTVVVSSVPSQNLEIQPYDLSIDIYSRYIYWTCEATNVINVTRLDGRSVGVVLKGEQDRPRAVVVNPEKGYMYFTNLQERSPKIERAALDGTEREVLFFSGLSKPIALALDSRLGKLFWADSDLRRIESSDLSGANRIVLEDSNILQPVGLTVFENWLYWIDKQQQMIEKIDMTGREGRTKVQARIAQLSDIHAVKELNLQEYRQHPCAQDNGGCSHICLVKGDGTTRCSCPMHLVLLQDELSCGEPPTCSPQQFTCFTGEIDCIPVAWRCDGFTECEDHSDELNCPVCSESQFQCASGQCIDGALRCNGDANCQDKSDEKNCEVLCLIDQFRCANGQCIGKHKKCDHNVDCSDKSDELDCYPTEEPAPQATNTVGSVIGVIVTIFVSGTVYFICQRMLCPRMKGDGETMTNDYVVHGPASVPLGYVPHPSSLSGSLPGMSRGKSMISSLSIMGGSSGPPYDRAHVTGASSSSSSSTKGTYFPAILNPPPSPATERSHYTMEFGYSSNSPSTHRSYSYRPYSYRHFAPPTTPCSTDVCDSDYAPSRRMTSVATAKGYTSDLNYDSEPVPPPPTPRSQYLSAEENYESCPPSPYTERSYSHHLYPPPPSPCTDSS

CC[C@H](C)[C@H](NC(=O)[C@@H]1CSSC[C@H](NC(=O)CN)C(=O)N[C@@H](CC(N)=O)C(=O)N[C@@H]([C@@H](C)CC)C(=O)N[C@@H](CCSC)C(=O)N[C@@H](CC(C)C)C(=O)N2CCC[C@H]2C(=O)N[C@@H](Cc2ccc(O)cc2)C(=O)N[C@@H](Cc2c[nH]c3ccccc23)C(=O)NCC(=O)N[C@H]2CSSC[C@H](NC(=O)[C@H](CCC(=O)O)NC(=O)[C@H](Cc3ccccc3)NC(=O)[C@H](CC(=O)O)NC(=O)[C@H](CCCNC(=N)N)NC(=O)CNC2=O)C(=O)N[C@@H](CCSC)C(=O)N[C@@H](CCC(=O)O)C(=O)N[C@@H](CCC(N)=O)C(=O)N1)C(=O)N[C@H]1CSSC[C@@H](C(=O)NCC(=O)O)NC(=O)[C@H](CO)NC(=O)[C@H](CCC(N)=O)NC(=O)[C@H](Cc2ccc(O)cc2)NC(=O)[C@H](Cc2ccc(O)cc2)NC(=O)[C@H](CCC(N)=O)NC1=O [VEGF_CKP9.54.90.67.F8Y]
solubility (Solubility): ~2000 µg/mL (≈ 572 µM)
effect of F8Y mutation on affinity/potency (hVEGF-A (8-109) [1]): modest improvement

GCNIMLPFWGCGQSFECLAGCICQYYQSCGIA [9.54.1-2]
improvement of binding affinity for hVEGF-A (8-109) compared to parent clone (hVEGF-A (8-109) [2]): approximately 10 fold

GCNIMLPFWGCGQSFECLAGCICQYYQSCGLS [9.54.1-42]
improvement of binding affinity for hVEGF-A (8-109) compared to parent clone (hVEGF-A (8-109) [2]): approximately 10 fold

GCNIMLPFWGCGQSFECLAGCICQYYQSCGTR [9.54.1-36]
improvement of binding affinity for hVEGF-A (8-109) compared to parent clone (hVEGF-A (8-109) [2]): approximately 10 fold

GCNIMLPFWGCGQSFECLAGCICQYYQSCGVH [9.54.1-90]
improvement of binding affinity for hVEGF-A (8-109) compared to parent clone (hVEGF-A (8-109) [2]): approximately 10 fold

LRP6_CKP6 (GCRNSIKRCKQNSDCLAGCVCSVGHGCG)
S/N (signal to noise ratio as compared to BSA control) (LRP6 E1E2; LRP6 E1E2 vs BSA control): 37.36
ELISA (LRP6 E1E2; binding signal against LRP6 E1E2): 3.10

R19: LRP6 E1E2-binding EETI-II variant generated in soluble folded form (GCSNRVKVRACKQDSDCLAGCVCGPNGFCG; ends and bridges not checked; also: three disulfides, pairing not given here)
selectivity for Wnt1 over Wnt3a signaling [3]: 11 fold

bevacizumab
binding to mouse or rat VEGF-A (mouse or rat VEGF-A): do not bind

ranibizumab
binding to mouse or rat VEGF-A (mouse or rat VEGF-A): do not bind
